Laboratory results as given in patent US20170298146A1 (MODIQUEST B V, published 2017).
Non-standard residues stand in square brackets, D forms with d. No end group written: not given here. Cit = NC(=O)NCCC[C@H](N)C(=O)O

Key:
[1] = biological target: T1, human recombinant histone H2A (human); experiment: ELISA, 0.4 ug/well
T1 construct: Non-deiminated
Procedure: (§1) CFC-1 and CFC-0 were coated at the same concentration and served as positive and negative controls, respectively, for specific anti-citrulline reactivity and as coating controls. Non-coated wells were used to test for aspecific binding of the antibodies. […] Detection of bound anti-citrulline antibodies was performed by incubating the wells with rabbit-anti-human-HRP (1:2000) for one hour at RT followed by incubation with TMB substrate. The resulting OD (y-axis) is a measure for antibody binding. H1=recombinant histone 1; H1/p2=huPAD2 recombinant histone 1; H1/p4=huPAD4 recombinant histone 1 and so forth (x-axis).

[2] = biological target: T2, huPAD2 deiminated human recombinant histone H2A (human); experiment: ELISA, 0.4 ug/well
T2 construct: also called H2A/p2
Procedure: as §1

[3] = biological target: T3, huPAD4 deiminated human recombinant histone H2A (human); experiment: ELISA, 0.4 ug/well
T3 construct: also called H2A/p4; huPAD4 deiminated histone 2A
Procedure: as §1

[4] = biological target: T4, huPAD2 deiminated human recombinant histone H2B (human); experiment: ELISA, 0.4 ug/well
T4 construct: also called H2B/p2
Procedure: as §1

[5] = biological target: T5, huPAD4 deiminated human recombinant histone H2B (human); experiment: ELISA, 0.4 ug/well
T5 construct: also called H2B/p4
Procedure: as §1

[6] = biological target: T6, huPAD2 deiminated human recombinant histone H3 (human); experiment: ELISA, 0.4 ug/well
T6 construct: also called H3/p2
Procedure: as §1

[7] = biological target: T7, huPAD4 deiminated human recombinant histone H3 (human); experiment: ELISA, 0.4 ug/well
T7 construct: also called H3/p4
Procedure: as §1

[8] = biological target: T8, human recombinant histone H4 (human, UniProt P62805 2-103); experiment: ELISA, 0.4 ug/well
Procedure: as §1

CFC-1 [9] = biological target: T9, CFC-1; experiment: ELISA, 0.4 ug/well
T9 construct: Positive control for anti-citrulline reactivity; also called cfc1 XG
Procedure: as §1

[10] = biological target: T2, huPAD2 deiminated human recombinant …; experiment: ELISA, 0.0032 ug/well
Procedure: as §1, with “Deiminated, as well as non-deiminated histones, were immobilized on 96-well ELISA plates (0.3 μg/well). CFC-1” for “CFC-1”

[11] = biological target: T3, huPAD4 deiminated human recombinant …; experiment: ELISA, 0.0032 ug/well
Procedure: as §1, with “Deiminated, as well as non-deiminated histones, were immobilized on 96-well ELISA plates (0.3 μg/well). CFC-1” for “CFC-1”

[12] = biological target: T10, human recombinant histone H2B (human); experiment: ELISA, 0.0032 ug/well
T10 construct: Non-deiminated
Procedure: as §1, with “Deiminated, as well as non-deiminated histones, were immobilized on 96-well ELISA plates (0.3 μg/well). CFC-1” for “CFC-1”

[13] = biological target: T4, huPAD2 deiminated human recombinant …; experiment: ELISA, 0.0032 ug/well
Procedure: as §1, with “Deiminated, as well as non-deiminated histones, were immobilized on 96-well ELISA plates (0.3 μg/well). CFC-1” for “CFC-1”

[14] = biological target: T5, huPAD4 deiminated human recombinant …; experiment: ELISA, 0.0032 ug/well
Procedure: as §1, with “Deiminated, as well as non-deiminated histones, were immobilized on 96-well ELISA plates (0.3 μg/well). CFC-1” for “CFC-1”

[15] = biological target: T6, huPAD2 deiminated human recombinant …; experiment: ELISA, 0.0032 ug/well
Procedure: as §1, with “Deiminated, as well as non-deiminated histones, were immobilized on 96-well ELISA plates (0.3 μg/well). CFC-1” for “CFC-1”

[16] = biological target: T7, huPAD4 deiminated human recombinant …; experiment: ELISA, 0.0032 ug/well
Procedure: as §1, with “Deiminated, as well as non-deiminated histones, were immobilized on 96-well ELISA plates (0.3 μg/well). CFC-1” for “CFC-1”

[17] = biological target: T8, human recombinant histone H4; experiment: ELISA, 0.0032 ug/well
Procedure: as §1, with “Deiminated, as well as non-deiminated histones, were immobilized on 96-well ELISA plates (0.3 μg/well). CFC-1” for “CFC-1”

CFC-1 [18] = biological target: T9, CFC-1; experiment: ELISA, 0.0032 ug/well
Procedure: as §1, with “Deiminated, as well as non-deiminated histones, were immobilized on 96-well ELISA plates (0.3 μg/well). CFC-1” for “CFC-1”

[19] = biological target: T7, huPAD4 deiminated human recombinant …; experiment: ELISA, 0.000128 ug/well
Procedure: as §1

CFC-1 [20] = biological target: T9, CFC-1; experiment: peptide ELISA, 0.00064 ug/well
Procedure: (§2) Biotin and citrulline-containing peptides derived from fibrinogen and vimentin were immobilized on NEUTRAVIDIN®-coated 96-well ELISA plates (0.3 μg/well). CFC-1 and CFC-0 were coated at the same concentration and served as positive and negative controls respectively for specific anti-citrulline reactivity and as coating controls. Non-coated wells were used to test for aspecific binding of the antibodies. […] Detection of bound anti-citrulline antibodies was performed by incubating the wells with rabbit-anti-human-HRP (1:2000) for one hour at RT followed by incubation with TMB substrate. The resulting OD (y-axis) is a measure for antibody binding.
(§3) Biotin-labeled and citrulline-containing fibrinogen and vimentin peptides (Table 5) were also tested for reactivity with the therapeutic antibodies. Peptides were coated on 96-well NEUTRAVIDIN®-ELISA plates.

msFibα XH = biological target: T11, msFibα XH (mouse, X at position 15 is citrulline; biotin label); experiment: peptide ELISA, 0.00064 ug/well
T11 peptide: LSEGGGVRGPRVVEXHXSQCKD
Procedure: as §2, §3

msFibα XG = biological target: T12, msFibα XG (mouse, X at position 8 is citrulline; biotin label); experiment: peptide ELISA, 0.00064 ug/well
T12 peptide: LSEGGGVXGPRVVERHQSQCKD
Procedure: as §2, §3

huFibα XH = biological target: T13, huFibα XH (human, X at position 15 is citrulline; biotin label); experiment: peptide ELISA, 0.00064 ug/well
T13 peptide: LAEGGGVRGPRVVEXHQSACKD
Procedure: as §2, §3

huFibα XG = biological target: T14, huFibα XG (human, X at position 8 is citrulline; biotin label); experiment: peptide ELISA, 0.00064 ug/well
T14 peptide: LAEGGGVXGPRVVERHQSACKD
Procedure: as §2, §3

msFibβ XG = biological target: T15, msFibβ XG (mouse, also: biotin label); experiment: peptide ELISA, 0.00064 ug/well
T15 peptide: EPTDSLDA[Cit]GHRPVDRR
Procedure: as §2, §3

msVim XS/XL = biological target: T16, msVim XS/XL (mouse, also: biotin label); experiment: peptide ELISA, 0.00064 ug/well
T16 construct: also called mouse vimentin peptide
T16 peptide: YVT[Cit]SSAV[Cit]L[Cit]SSVP
Procedure: as §2, §3

B1: RhmAb2.102 (antibody, human IgG1, lambda)
heavy: not shown
light: QSVLTQPPSMSAAPGQKVTISCSGSSSNIGNNYVSWYQQVPGTAPKLLIYDDNKRPSGIPGRFSGSKSATSATLGITGLQAGDEADYYCGSWDDNLSVVLFGGGTKLTVLGQPKAAPSVTLFPPSSEELQANKATLVCLISDFYPGAVTVAWKADSSPVKAGVETTTPSKQSNNKYAASSYLSLTPEQWKSHRSYSCQVTHEGSTVEKTVAPTECS
notes: Human IgG1 lambda; also called Rhm2.102
[1]
  OD: 0.071 OD
[2]
  OD: 3.08 OD
[3]
  OD: 2.72 OD
[4]
  OD: 0.06 OD
[5]
  OD: 0.054 OD
[6]
  OD: 1.18 OD
[7]
  OD: 0.166 OD
[8]
  OD: 0.091 OD
CFC-1 [9]
  OD: 3.12 OD
[10]
  OD: 0.161 OD
[11]
  OD: 0.135 OD
[12]
  OD: 0.05 OD
[13]
  OD: 0.052 OD
[14]
  OD: 0.052 OD
[15]
  OD: 0.08 OD
[16]
  OD: 0.065 OD
[17]
  OD: 0.06 OD
CFC-1 [18]
  OD: 0.178 OD
[19]
  OD: 0.06 OD
CFC-1 [20]
  OD: 0.345 OD
msFibα XH
  OD: 0.088 OD
msFibα XG
  OD: 0.116 OD
huFibα XH
  OD: 0.124 OD
huFibα XG
  OD: 0.125 OD
msFibβ XG
  OD: 0.133 OD
msVim XS/XL
  OD: 0.154 OD
